Measured values reported in US20250361296A1.

T1: His-tagged monkey SIGLEC15 protein (fasSIGLEC15-His, ACROBiosystems Inc., Cat #: SG5-C52H6) (monkey)
T1 sequence: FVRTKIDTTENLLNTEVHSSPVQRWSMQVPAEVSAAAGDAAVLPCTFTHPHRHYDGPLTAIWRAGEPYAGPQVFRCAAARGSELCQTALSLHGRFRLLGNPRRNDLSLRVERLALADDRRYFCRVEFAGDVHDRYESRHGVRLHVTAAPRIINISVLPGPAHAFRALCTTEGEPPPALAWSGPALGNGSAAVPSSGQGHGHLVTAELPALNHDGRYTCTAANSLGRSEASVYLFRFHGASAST


How the values were obtained:
[1] = molecular target: Macaca fascicularis (crab-eating macaque) SIGLEC15 on CHO-S-fasSIGLEC15 cells (Macaca fascicularis (crab-eating macaque)); assay: flow cytometry, CHO-S cells expressing the target
[2] = molecular target: T1, His-tagged monkey SIGLEC15 protein (fasSIGLEC15-His, ACROBiosystems Inc., Cat #: SG5-C52H6) (monkey); assay: SPR (Biacore 8K), antibody captured on Protein A chip, His-tagged SIGLEC15 as analyte

| Binder | Percentage of Positive Cells [1] | Kd [2] | koff [2] | kon [2] |
| --- | --- | --- | --- | --- |
| anti-SIGLEC15 antibody 10A7 (antibody, human IgG1, V domains shown) VH: EVQLVQSGGGLVQPGGSLRLSCAASGFTFSNYEMNWVRQAPGKGLEWISYISNSGSTIYYADSVKGRFTISRDDAKNSLYLQMNSLRAEDTAVYYCAREDYDSSGYYWFDPWGQGTPVTVSS VL: DIQLTQSPSSVSASVGDRVTITCRASQGISSWLAWYQQKPGKAPKLLIYAASSLQSGVPSRFSGSGSGTDFTLTINSLQPEDFATYYCQQTNSFPLTFGGGTKVEIK | 49.3% |  |  |  |
| anti-SIGLEC15 antibody 10C9 (antibody, human IgG1, V domains shown) VH: QVQLVQSGAEVKKPGATVKVSCKASGYTFTNYGFSWVRQAPGQGLEWMGWINTYNDNTNYAQKFQGRVTMTTDTSTSTAYMELRSLRSDDTAVYYCARDGLWFGELPHYFDYWGQGTLVTVSS VL: DIQLTQSPLSSPVTLGQPASISCRSSQSLVNSDGETFLSWLQQRPGQPPRLLIYKISNRFSGVPDRFSGSGAGTDFTLKISRVEAEDVGVYYCMQATQFPHTFGQGTKLEIK | 47.5% | 20.6 pM | 5.01e-05 s⁻¹ | 2.43e+06 M⁻¹ s⁻¹ |
